The results in this text go back to US12332245B2, “Cancer biomarkers and methods of use thereof” (THE REGENTS OF THE UNIVERSITY OF CALIFORNIA, priority 2006, dated 2025).

The subject of assay [1] is COX-2 in vHMEC over expressing TRF2. Kind of assay: phospho-p38 inhibitor treatment of vHMEC over expressing TRF2; COX-2 by Q-PCR and immunoblot. The assay is classed as cell-based, human. The settings on record: early passage vHMEC expressing TRF2, SB203580 24 hrs. From the text:
Cell Culture: Human mammary epithelial cells (vHMEC) were isolated from reduction mammoplasty (RM) of four individuals RM9, RM15, RM16 and RM18. HMEC undergo a spontaneous proliferation barrier between 8 and 12 population doublings. Variant human mammary epithelial cells (vHMEC) escape this growth barrier and have silenced p16 through promoter methylation. Cells were propagated in 2D cultures in modified MCBD 170 media (MEGM, Lonza) as previously described (Romanov et al, 2001; Hammond et al 1984). All experiments were performed on exponentially growing early passage vHMEC (between 13 to 20 population doublings); RM9, 15, 16 and 18 cease to expand in cell number at population doublings 45, 60, 50 and 53, respectively. […]
(§1) Quantitative PCR: Total RNA was isolated from cells and cDNA synthesized using standard methods. cDNA was subsequently used for quantitative real-time PCR using the standard curve method. […]
(§2) Western Blotting, ELISA and Immunofluorescence: Cell pellets were lysed in T-PER buffer (Pierce). […] Activin A protein levels were measured using the Duo-Set Activin ELISA kit (R&D Systems) following the manufacturer's directions. […] Levels of activin A were determined in cells from all four donors. […] The mean fluorescent intensity of γH2AX signal (voxels) in each nucleus was determined with the Volocity 4.0.0 software package (Improvision) on Z-stacks. […]
A general note: In western blotting, separated proteins are transferred to a membrane and probed.

Assay [2] relates to COX-2 and phospho-p38 in vHMEC. Nature of the assay: exogenous activin A treatment of vHMEC; COX-2 and phospho-p38 by Q-PCR and immunoblot. The settings on record: exogenous activin A 48 hrs. The format is cell-based, human.
From the text: Cell Culture: Human mammary epithelial cells (vHMEC) were isolated from reduction mammoplasty (RM) of four individuals RM9, RM15, RM16 and RM18. HMEC undergo a spontaneous proliferation barrier between 8 and 12 population doublings. Variant human mammary epithelial cells (vHMEC) escape this growth barrier and have silenced p16 through promoter methylation. Cells were propagated in 2D cultures in modified MCBD 170 media (MEGM, Lonza) as previously described (Romanov et al, 2001; Hammond et al 1984). All experiments were performed on exponentially growing early passage vHMEC (between 13 to 20 population doublings); RM9, 15, 16 and 18 cease to expand in cell number at population doublings 45, 60, 50 and 53, respectively. Activin A (Sigma) and the p38 inhibitor, SB203580, (Sigma) were added to culture media for 48 and 24 hours (respectively) prior to harvest at the doses shown in FIGS. 3 and 4. The same amount of solvent for each molecule was added to the culture media for controls.
as §1, §2
FIGS. 23A-D: Activin A is Up Regulated in vHMEC and Induces COX-2. A. Box plot showing the levels of activin A mRNA measured using Q-PCR in parental vHMEC, or vHMEC over expressing vector (pWP) or TRF2 from 4 donors. p-value was calculated using ANOVA and is shown in the inset. B, Box plot showing the levels of activin A protein measured using ELISA in parental vHMEC or vHMEC over expressing vector (pWP) or TRF2 from 4 donors. […]

For the molecule `C[S+]([O-])c1ccc(-c2nc(-c3ccncc3)c(-c3ccc(F)cc3)[nH]2)cc1` (centres unmarked) [SB203580], in assay [1] (Q-PCR, ANOVA p=0.002), the “COX-2 mRNA” value is “marked decrease”. In assay [1] (immunoblot), the COX-2 protein levels entry was “marked decrease”.

B1: activin A: a member of the TGF-β superfamily; a homodimer of the activin βA subunits (protein, UniProt P08476 311-426, looked up)
Inhibin beta A chain: GLECDGKVNICCKKQFFVSFKDIGWNDWIIAPSGYHANYCEGECPSHIAGTSGSSLSFHSTVINHYRMRGHSPFANLKSCCVPTKLRPMSMLYYDDGQNIIKKDIQNMIVEECGCS
modifications: Inhibin beta A chain
In the case of B1, the “increase in COX-2 mRNA” value in assay [2] (vHMEC from two donors, Q-PCR, ANOVA p=0.001) is “approximately two-fold”. Also, in assay [2] (vHMEC from two donors, immunoblot), the “increase in COX-2 protein” value is “approximately two-fold”. Moreover, in assay [2] (vHMEC, immunoblot), the “levels of phospho-p38” value is given as “increase”.
